Experimental data taken from the supplement of paper PMC10065799, “High-throughput profiling of sequence recognition by tyrosine kinases and SH2 domains using bacterial peptide display” (eLife, 2023).

Key:
EPHB1 = EPHB1 (UniProt P54762); experiment: phosphorylation enrichment, bacterial display (enrichment ratio); higher = better substrate or ligand; peptides without Tyr show the background
Hck = Hck (UniProt P08631); experiment: as above
Fer (mouse) = experiment: as above
MERTK = MERTK (UniProt Q12866); experiment: as above
Jak2 = Jak2 (UniProt O60674); experiment: as above
c-Src = experiment: as above
FGFR3 = FGFR3 (UniProt P22607); experiment: as above
AncSZ = experiment: as above
Fyn = Fyn (UniProt P06241); experiment: as above
c-Abl (mouse) = experiment: as above
Fes = Fes (UniProt P07332); experiment: as above
EPHB2 = EPHB2 (UniProt P29323); experiment: as above
FGFR1 = FGFR1 (UniProt P11362); experiment: as above
c-Src SH2 = experiment: SH2 binding enrichment of the phosphorylated peptide, bacterial display (enrichment ratio); higher = better substrate or ligand; peptides without Tyr show the background
Grb2 SH2 = Grb2 SH2 (UniProt P62993); experiment: as above
SHP2-C SH2 = experiment: as above
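For SH2 binding enrichment of the phosphorylated peptide, bacterial display in this document: peptide library displayed on the E. coli surface as eCPX fusions, selected cells deep-sequenced, score is each peptide's frequency after selection divided by its frequency in the input.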
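For phosphorylation enrichment, bacterial display in this document: 11-residue human phosphosite peptides and single-mutation variants displayed on the E. coli surface, counted by deep sequencing, each peptide's frequency after selection divided by its frequency in the unselected input library; frequency after pTyr selection over input frequency; kinase dosed for 20-30% of maximal phosphorylation in three min.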

EPHB2, sequence (P29323 whole entry, looked up): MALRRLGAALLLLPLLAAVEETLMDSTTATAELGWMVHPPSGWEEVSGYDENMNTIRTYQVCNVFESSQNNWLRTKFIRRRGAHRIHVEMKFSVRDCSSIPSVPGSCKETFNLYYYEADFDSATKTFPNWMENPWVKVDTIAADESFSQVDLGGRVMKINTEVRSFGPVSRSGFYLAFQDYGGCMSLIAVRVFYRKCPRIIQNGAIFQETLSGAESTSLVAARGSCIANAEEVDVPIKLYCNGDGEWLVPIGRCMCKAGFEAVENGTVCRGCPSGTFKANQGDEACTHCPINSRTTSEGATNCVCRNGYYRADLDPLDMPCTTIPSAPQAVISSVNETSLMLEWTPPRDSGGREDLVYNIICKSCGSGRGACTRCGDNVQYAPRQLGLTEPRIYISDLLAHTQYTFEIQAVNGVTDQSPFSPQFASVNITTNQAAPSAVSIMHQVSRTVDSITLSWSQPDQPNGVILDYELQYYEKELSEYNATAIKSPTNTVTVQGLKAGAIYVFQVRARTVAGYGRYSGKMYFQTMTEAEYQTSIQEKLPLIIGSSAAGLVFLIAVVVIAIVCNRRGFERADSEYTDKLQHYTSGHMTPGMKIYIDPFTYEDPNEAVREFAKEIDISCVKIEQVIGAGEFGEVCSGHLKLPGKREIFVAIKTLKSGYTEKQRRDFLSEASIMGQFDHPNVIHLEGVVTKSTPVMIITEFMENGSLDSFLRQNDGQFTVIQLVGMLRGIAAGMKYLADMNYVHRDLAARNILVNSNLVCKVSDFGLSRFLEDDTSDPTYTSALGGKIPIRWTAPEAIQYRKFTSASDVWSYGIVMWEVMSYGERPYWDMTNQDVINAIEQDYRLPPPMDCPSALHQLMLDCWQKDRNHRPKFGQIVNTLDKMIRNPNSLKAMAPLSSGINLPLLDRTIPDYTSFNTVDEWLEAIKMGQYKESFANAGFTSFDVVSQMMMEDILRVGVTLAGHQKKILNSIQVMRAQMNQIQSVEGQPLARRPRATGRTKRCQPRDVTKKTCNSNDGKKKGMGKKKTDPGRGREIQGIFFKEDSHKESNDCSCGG
EPHB1, sequence (P54762 whole entry, looked up): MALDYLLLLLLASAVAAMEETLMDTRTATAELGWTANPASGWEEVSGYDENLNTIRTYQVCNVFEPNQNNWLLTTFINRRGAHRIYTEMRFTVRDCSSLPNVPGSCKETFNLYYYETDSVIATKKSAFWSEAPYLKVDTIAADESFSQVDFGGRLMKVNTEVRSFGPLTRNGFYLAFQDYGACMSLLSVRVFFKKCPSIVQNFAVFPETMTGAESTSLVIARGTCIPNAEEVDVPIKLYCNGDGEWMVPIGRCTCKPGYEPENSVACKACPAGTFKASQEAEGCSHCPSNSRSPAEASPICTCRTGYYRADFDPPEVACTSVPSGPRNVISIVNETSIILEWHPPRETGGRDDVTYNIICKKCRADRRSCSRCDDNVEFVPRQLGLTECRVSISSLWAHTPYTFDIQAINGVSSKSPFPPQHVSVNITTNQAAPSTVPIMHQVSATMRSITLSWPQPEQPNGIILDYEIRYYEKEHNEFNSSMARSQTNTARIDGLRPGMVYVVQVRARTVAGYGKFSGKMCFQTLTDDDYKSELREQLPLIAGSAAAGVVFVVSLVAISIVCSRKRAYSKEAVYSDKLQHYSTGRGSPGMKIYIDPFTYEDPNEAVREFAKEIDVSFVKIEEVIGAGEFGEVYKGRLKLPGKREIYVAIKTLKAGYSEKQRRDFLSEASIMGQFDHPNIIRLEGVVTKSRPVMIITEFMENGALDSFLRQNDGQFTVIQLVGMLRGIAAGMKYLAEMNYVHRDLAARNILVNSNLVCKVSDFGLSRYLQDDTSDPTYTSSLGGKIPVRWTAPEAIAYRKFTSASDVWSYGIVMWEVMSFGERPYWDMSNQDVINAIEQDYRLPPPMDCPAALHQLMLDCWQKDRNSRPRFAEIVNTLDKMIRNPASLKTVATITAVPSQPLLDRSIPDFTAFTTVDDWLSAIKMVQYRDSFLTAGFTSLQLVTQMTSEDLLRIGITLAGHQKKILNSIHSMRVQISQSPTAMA
Jak2, sequence (O60674 whole entry, looked up): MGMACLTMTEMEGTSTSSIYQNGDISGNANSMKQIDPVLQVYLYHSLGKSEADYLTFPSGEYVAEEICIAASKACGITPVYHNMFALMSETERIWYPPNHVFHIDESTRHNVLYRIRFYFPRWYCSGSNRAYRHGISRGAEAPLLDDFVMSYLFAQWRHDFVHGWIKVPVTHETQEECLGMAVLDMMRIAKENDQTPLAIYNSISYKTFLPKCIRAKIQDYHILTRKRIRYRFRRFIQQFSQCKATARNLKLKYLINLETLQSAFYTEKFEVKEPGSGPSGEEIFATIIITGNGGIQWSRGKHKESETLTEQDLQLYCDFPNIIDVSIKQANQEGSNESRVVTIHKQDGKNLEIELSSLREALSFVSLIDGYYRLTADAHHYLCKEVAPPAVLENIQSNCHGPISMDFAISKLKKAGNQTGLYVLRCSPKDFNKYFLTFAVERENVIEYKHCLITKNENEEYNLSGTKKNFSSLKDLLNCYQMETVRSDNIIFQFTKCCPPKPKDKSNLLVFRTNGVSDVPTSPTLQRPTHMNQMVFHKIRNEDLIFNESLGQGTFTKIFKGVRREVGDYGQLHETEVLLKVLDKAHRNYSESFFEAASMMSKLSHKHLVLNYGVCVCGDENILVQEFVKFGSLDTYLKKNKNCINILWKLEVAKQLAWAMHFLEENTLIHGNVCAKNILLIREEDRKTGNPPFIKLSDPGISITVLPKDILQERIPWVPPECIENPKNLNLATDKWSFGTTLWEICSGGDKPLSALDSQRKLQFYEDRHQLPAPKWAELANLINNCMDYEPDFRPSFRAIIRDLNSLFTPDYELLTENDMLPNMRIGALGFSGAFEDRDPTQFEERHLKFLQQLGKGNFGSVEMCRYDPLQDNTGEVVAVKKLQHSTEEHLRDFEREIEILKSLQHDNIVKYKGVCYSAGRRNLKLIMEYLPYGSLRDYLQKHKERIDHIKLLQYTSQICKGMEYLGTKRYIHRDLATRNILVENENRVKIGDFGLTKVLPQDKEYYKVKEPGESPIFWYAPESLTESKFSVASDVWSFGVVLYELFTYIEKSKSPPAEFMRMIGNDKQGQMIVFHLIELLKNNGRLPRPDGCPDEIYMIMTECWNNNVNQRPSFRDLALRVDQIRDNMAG
FGFR1, sequence (P11362 whole entry, looked up): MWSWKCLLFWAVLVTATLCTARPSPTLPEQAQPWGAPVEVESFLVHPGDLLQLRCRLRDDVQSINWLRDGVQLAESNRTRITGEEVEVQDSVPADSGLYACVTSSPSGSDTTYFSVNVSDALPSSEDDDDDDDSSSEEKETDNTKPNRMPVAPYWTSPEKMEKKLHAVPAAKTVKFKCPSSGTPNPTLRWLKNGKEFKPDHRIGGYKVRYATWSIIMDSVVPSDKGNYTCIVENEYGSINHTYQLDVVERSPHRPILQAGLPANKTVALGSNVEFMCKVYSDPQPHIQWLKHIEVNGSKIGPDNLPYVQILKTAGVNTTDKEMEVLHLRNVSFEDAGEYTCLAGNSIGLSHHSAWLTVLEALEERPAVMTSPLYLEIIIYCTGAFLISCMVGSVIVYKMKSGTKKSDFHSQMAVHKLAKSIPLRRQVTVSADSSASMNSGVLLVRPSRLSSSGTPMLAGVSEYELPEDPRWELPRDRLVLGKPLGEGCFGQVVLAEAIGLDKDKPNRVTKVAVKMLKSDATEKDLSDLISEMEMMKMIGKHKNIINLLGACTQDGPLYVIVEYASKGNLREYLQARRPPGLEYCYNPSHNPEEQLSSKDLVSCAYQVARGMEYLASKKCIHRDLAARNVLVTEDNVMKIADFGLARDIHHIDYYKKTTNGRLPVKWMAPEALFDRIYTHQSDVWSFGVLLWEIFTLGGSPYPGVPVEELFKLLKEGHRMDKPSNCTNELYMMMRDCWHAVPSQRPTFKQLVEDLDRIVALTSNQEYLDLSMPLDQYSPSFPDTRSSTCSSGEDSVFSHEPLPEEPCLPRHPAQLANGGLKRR
Fyn, sequence (P06241 whole entry, looked up): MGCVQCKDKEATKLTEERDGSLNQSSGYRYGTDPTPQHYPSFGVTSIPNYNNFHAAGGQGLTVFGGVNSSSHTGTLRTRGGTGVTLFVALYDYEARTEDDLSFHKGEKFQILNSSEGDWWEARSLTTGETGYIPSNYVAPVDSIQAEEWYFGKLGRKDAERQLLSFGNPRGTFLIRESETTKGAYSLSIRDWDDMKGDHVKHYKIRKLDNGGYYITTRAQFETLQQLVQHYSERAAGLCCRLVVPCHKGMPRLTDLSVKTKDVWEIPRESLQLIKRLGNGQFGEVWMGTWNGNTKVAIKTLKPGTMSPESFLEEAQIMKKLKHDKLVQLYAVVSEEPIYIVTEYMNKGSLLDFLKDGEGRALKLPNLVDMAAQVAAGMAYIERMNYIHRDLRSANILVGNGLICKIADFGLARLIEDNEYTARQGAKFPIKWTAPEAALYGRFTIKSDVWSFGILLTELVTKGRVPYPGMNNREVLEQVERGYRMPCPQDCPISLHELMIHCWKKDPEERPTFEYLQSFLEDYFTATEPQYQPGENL
Hck, sequence (P08631 whole entry, looked up): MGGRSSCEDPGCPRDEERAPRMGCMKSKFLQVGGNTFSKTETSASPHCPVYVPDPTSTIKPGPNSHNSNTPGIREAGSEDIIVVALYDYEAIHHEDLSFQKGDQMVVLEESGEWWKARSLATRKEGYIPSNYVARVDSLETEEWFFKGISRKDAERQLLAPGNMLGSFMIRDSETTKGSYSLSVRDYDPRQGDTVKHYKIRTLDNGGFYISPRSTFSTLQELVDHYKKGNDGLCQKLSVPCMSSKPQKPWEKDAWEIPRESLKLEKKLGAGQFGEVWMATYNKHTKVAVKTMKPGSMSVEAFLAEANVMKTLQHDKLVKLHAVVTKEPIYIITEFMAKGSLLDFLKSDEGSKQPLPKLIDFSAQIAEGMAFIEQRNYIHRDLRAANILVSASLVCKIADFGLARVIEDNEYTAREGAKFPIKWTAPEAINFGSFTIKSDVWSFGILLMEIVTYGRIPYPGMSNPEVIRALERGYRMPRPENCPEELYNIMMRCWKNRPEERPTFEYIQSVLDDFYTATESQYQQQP

SH2 binding enrichment (c-Src SH2) | SH2 binding enrichment (Grb2 SH2) | SH2 binding enrichment (SHP2-C SH2) | Sequence | phosphorylation enrichment (EPHB1) | phosphorylation enrichment (Hck) | phosphorylation enrichment (Fer (mouse)) | phosphorylation enrichment (MERTK) | phosphorylation enrichment (Jak2) | phosphorylation enrichment (c-Src) | phosphorylation enrichment (FGFR3) | phosphorylation enrichment (AncSZ) | phosphorylation enrichment (Fyn) | phosphorylation enrichment (c-Abl (mouse)) | phosphorylation enrichment (Fes) | phosphorylation enrichment (EPHB2) | phosphorylation enrichment (FGFR1)
0.864 | 0.861 | 0.572 | EYKDAYKFAAD [BRDT_Y335] | 0.59 | 0.542 | 0.559 | 0.475 | 0.722 | 0.495 | 0.632 | 0.984 | 0.499 | 0.666 | 1.14 | 0.553 | 0.511
9.41 | 1.06 | 10.1 | TVSQPYSFIEF [SEC22B_Y110_R108Q] | 0.878 | 3.08 | 19.4 | 8.32 | 0.933 | 5.66 | 8.47 | 1.29 | 4.91 | 0.805 | 3.48 | 0.54 | 11.5
0.447 | 0.951 | 0.812 | RLLVVYPWTKR [HBB_Y36_Q40K] | 0.418 | 0.547 | 0.45 | 0.612 | 0.475 | 0.583 | 0.613 | 0.735 | 0.485 | 0.602 | 0.829 | 0.678 | 0.694
0.66 | 0.976 | 0.728 | CEAMEYPESKQ [BTK_Y511_L512P] | 0.676 | 0.572 | 0.705 | 0.46 | 1.3 | 0.548 | 0.736 | 1.28 | 0.543 | 0.952 | 1.42 | 0.735 | 0.571
1.09 | 1.36 | 1.16 | GHLFAYDWISI [BEST1_Y227_YF] | 0.938 | 1.4 | 15.1 | 6.92 | 0.707 | 0.915 | 1.74 | 1.25 | 0.894 | 0.526 | 1.48 | 0.823 | 2.76
0.637 | 1.06 | 0.552 | FENGEYIVRQG [PRKG1_Y247_I249V_YF] | 0.612 | 0.551 | 0.523 | 0.39 | 0.685 | 0.43 | 0.922 | 0.888 | 0.468 | 0.646 | 0.962 | 0.641 | 0.437
0.506 | 0.909 | 0.486 | LSPNMYNSKFW [TARSL2_Y457_L461F] | 1.41 | 1.25 | 0.808 | 1.11 | 1.58 | 1.35 | 0.924 | 1.24 | 0.911 | 1.1 | 1.6 | 1.1 | 1.24
1.12 | 1.75 | 1.28 | VIVRMYDFHVL [RPF2_Y109_G106V_YF] | 1.33 | 0.488 | 4.04 | 1.87 | 0.901 | 0.473 | 0.597 | 1.08 | 0.555 | 0.885 | 1.01 | 1.55 | 0.462
0.454 | 0.802 | 0.819 | IEPGIYIPEDD [XPNPEP3_Y455] | 0.598 | 0.592 | 0.576 | 0.558 | 1.24 | 0.702 | 0.902 | 1.23 | 0.59 | 1.05 | 1.38 | 0.523 | 0.521
0.644 | 0.876 | 0.61 | QCQLKYSETPF [SIX6OS1_Y129_Y125C] | 0.634 | 0.749 | 0.798 | 0.82 | 1.01 | 0.717 | 0.842 | 1.24 | 0.558 | 0.933 | 1.32 | 0.722 | 0.68
0.37 | 1.07 | 0.373 | QQMGTYGVRAA [ICAM2_Y260_R256Q] | 0.281 | 3.77 | 0.339 | 0.658 | 0.313 | 2.48 | 0.417 | 0.33 | 2.06 | 0.442 | 0.579 | 0.414 | 0.392
1.1 | 1.11 | 0.675 | YETSHYLASPD [CTNND2_Y1217_P1218L] | 0.59 | 0.554 | 0.685 | 0.784 | 0.809 | 0.529 | 0.633 | 1.09 | 0.523 | 0.821 | 0.961 | 0.767 | 0.649
0.522 | 0.788 | 0.751 | RGEAVYSRDCV [XPC_Y676] | 0.764 | 2.93 | 0.472 | 0.857 | 1.01 | 2.34 | 1.01 | 0.997 | 2.95 | 0.692 | 1.2 | 0.655 | 0.718
0.525 | 0.684 | 0.68 | IKETHYMVDKC | 0.447 | 0.448 | 0.507 | 0.437 | 0.804 | 0.403 | 0.543 | 0.8 | 0.46 | 0.652 | 0.944 | 0.531 | 0.489
0.387 | 0.733 | 0.719 | KHMADYPDFKF [SOX11_Y113_YF] | 0.503 | 0.391 | 0.434 | 0.398 | 0.669 | 0.386 | 0.701 | 0.745 | 0.502 | 0.591 | 0.84 | 0.496 | 0.62
0.899 | 1.09 | 0.972 | KQFWRYFAGNL [SLC25A4_Y112] | 0.777 | 0.449 | 0.488 | 0.542 | 1.04 | 0.507 | 0.598 | 0.944 | 0.32 | 0.764 | 1.03 | 0.53 | 0.461
0.466 | 0.984 | 0.65 | EDDIIYTQDFM [STK11_Y362_T367M] | 0.697 | 0.992 | 0.776 | 0.784 | 1.21 | 1.1 | 1.25 | 1.49 | 1.03 | 0.889 | 1.31 | 0.746 | 0.911
0.497 | 0.75 | 0.677 | ASMAKYFASEI [ACADSB_Y372_YF] | 0.484 | 0.384 | 0.449 | 0.416 | 0.817 | 0.35 | 0.781 | 0.721 | 0.504 | 0.474 | 0.842 | 0.436 | 0.709
0.402 | 0.818 | 0.566 | ILQSMYGCDVG [HLA-B_Y123_T118I] | 0.659 | 0.517 | 0.48 | 0.438 | 0.893 | 0.569 | 0.624 | 0.816 | 0.489 | 0.546 | 0.935 | 0.51 | 0.403
0.402 | 0.617 | 0.532 | SVTCTYSPALH [TP53_Y126_N131H] | 0.71 | 0.556 | 0.492 | 0.413 | 1.23 | 0.741 | 0.724 | 1.28 | 0.545 | 0.808 | 1.41 | 0.62 | 0.487
0.419 | 0.668 | 0.386 | GRSTYYWPRPR [GAGE12J_Y10] | 0.474 | 0.615 | 0.504 | 0.748 | 0.543 | 0.665 | 0.481 | 0.697 | 0.524 | 0.93 | 0.444 | 0.507 | 0.537
1.54 | 1.2 | 1.51 | AKKKMYSLKTK [AGXT_Y231_R233L] | 0.317 | 0.44 | 0.373 | 0.435 | 0.795 | 0.434 | 0.853 | 0.404 | 0.365 | 0.773 | 0.791 | 0.463 | 0.389
0.466 | 1.14 | 0.676 | EPVSDYINANV [PTPN11_Y304_I309V] | 0.42 | 0.428 | 0.384 | 0.4 | 0.754 | 0.37 | 0.585 | 1.03 | 0.393 | 0.567 | 0.855 | 0.486 | 0.541
0.442 | 0.798 | 0.62 | VYSSDYFSFVL [USP24_Y2138] | 3.74 | 1.95 | 0.875 | 5.03 | 5.25 | 4.61 | 7.74 | 2.21 | 4.46 | 2.92 | 1.35 | 3.95 | 9.06
1.27 | 0.805 | 0.803 | LLQAEYWHDPI [PPT1_Y185_V181L] | 0.682 | 0.667 | 0.74 | 0.726 | 1.55 | 0.864 | 3.92 | 1.89 | 0.975 | 1.62 | 1.96 | 0.511 | 4.99
0.477 | 0.776 | 0.55 | VSFDEYRFRSV [CFTR_Y515_YF] | 0.519 | 0.574 | 0.567 | 0.6 | 1.14 | 0.614 | 0.699 | 0.972 | 0.489 | 0.862 | 1.22 | 0.591 | 0.515
0.688 | 0.948 | 0.727 | FSVDGYDSSVR [KCNQ1_Y461] | 0.519 | 0.393 | 0.36 | 0.311 | 0.672 | 0.37 | 0.53 | 0.693 | 0.461 | 0.648 | 0.773 | 0.513 | 0.427
0.607 | 1.35 | 0.901 | FRTPGYREVVI [TNS2_Y673_A670T_YF] | 0.418 | 0.43 | 0.473 | 0.546 | 0.615 | 0.504 | 0.6 | 0.703 | 0.411 | 0.597 | 0.814 | 0.446 | 0.45

Sequence | SH2 binding enrichment (c-Src SH2) | SH2 binding enrichment (Grb2 SH2) | SH2 binding enrichment (SHP2-C SH2) | phosphorylation enrichment (EPHB1) | phosphorylation enrichment (Hck) | phosphorylation enrichment (Fer (mouse)) | phosphorylation enrichment (MERTK) | phosphorylation enrichment (Jak2) | phosphorylation enrichment (c-Src) | phosphorylation enrichment (FGFR3) | phosphorylation enrichment (AncSZ) | phosphorylation enrichment (Fyn) | phosphorylation enrichment (c-Abl (mouse)) | phosphorylation enrichment (Fes) | phosphorylation enrichment (EPHB2) | phosphorylation enrichment (FGFR1)
IYETDYYRKGG [INSR_Y1189] | 0.59 | 0.863 | 0.621 | 0.645 | 1.28 | 1.54 | 3.92 | 0.942 | 1.16 | 0.771 | 1.05 | 1.14 | 0.626 | 0.885 | 0.673 | 0.479
